From US20240132578A1

Legend:
[1] = target: HIV-1 92RW020 Env (HIV-1); assay: cell-based or functional assay
[2] = target: HIV-1 Env of isolate MGRM-AE-004 (pseudovirus) (HIV-1); assay: cell-based or functional assay
[3] = target: HIV-1 Env of isolate MGRM-AE-005 (pseudovirus) (HIV-1); assay: cell-based or functional assay
[4] = target: HIV-1 Env of isolate MGRM-AE-006 (pseudovirus) (HIV-1); assay: cell-based or functional assay
[5] = target: HIV-1 envelope glycoprotein (Env) of isolate 92RW008, subtype A (HIV-1); assay: cell-based or functional assay
[6] = target: HIV-1 envelope glycoprotein (Env) of isolate MG RM-A-009, subtype A (HIV-1); assay: cell-based or functional assay
[7] = target: HIV-1 envelope glycoprotein (Env) of isolate MG RM-A-010, subtype A (HIV-1); assay: cell-based or functional assay
[8] = target: HIV-1 envelope glycoprotein (Env) of isolate MGRM-Chronic-B-004, on pseudovirus (HIV-1); assay: cell-based or functional assay
aMLV envelope = assay: cell-based or functional assay
[9] = target: JR-FL gp120 ΔV1/ΔV2 (HIV-1 JR-FL); assay: ELISA, antigen-coated wells, mAb titrated; EC50 by nonlinear regression
[10] = target: WT JR-FL gp120 (HIV-1 JR-FL); assay: as above

Row | Substance | IC50, pseudovirus neutralization [1] [µg/mL] | IC50 (µg/mL), pseudovirus neutralization [2] [µg/mL] | IC50 (µg/mL), pseudovirus neutralization [3] [µg/mL] | IC50 (µg/mL), pseudovirus neutralization [4] [µg/mL] | IC50, pseudovirus neutralization [5] [µg/mL] | IC50, pseudovirus neutralization [6] [µg/mL] | IC50, pseudovirus neutralization [7] [µg/mL] | IC50, pseudovirus neutralization [8] [µg/mL] | IC50, pseudovirus neutralization (aMLV envelope) [µg/mL] | EC50 [9] [µg/mL] | EC50 [10] [µg/mL]
1 | 5123_A06 (PGT-125) (antibody) | 0.0028 | > 50 | 0.01 | 0.009 | 0.004 | 0.009 | 0.004 | 0.007 | > 10 | 0.6 | 0.2
2 | 5141_B17 (PGT-126) (antibody) | 0.0046 | > 50 | 0.324 | 17.3 | 0.008 | 0.004 | 0.002 | 0.01 | > 10 | 0.3 | 0.1
3 | 4877_D15 (PGT-122) (antibody) | 0.0072 | > 50 | > 50 | > 50 | 0.003 | 0.012 | 2.51 | 0.008 | > 10 | 0.3 | 0.3
4 | 4858_P08 (PGT-123) (antibody) | 0.0038 | > 50 | > 50 | > 50 | 0.003 | 0.004 | 0.705 | 0.008 | > 10 | 0.3 | 0.2
